Assay results taken from publication doi:10.1101/2023.11.01.565146.

Biological target: Mlph-ABD labelled with ATTO 488 NHS Ester dye (mouse) (UniProt Q91V27)
Assay: MST

Sequence of UniProt Q91V27 (Q91V27 401-590): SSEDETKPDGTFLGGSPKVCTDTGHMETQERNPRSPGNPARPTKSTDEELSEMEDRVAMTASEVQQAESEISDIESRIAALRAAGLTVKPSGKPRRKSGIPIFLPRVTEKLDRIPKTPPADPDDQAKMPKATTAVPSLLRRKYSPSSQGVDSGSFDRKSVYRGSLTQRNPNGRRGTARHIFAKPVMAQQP

Substance: Flag-Myo5a-MTD (residues 1106-1467), bacterial-expressed (domain or fragment)
- Kd: 562 nM
